± gives the standard deviation.
Assay: protein stability index of a GFP-peptide fusion (GPS, HEK-293T) (PSI 1-6); higher = more stable
[1] = treatment: DMSO, c terminus: a fixed tail appended
[2] = treatment: MLN4924 1 uM, 8 h, c terminus: a fixed tail appended
[3] = treatment: DMSO, c terminus: native
[4] = treatment: MLN4924 1 uM, 8 h, c terminus: native
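Note: 24-mer peptide tiles fused after GFP, lentivirally expressed, FACS-sorted into six equal bins by GFP/DsRed ratio, decoded by Illumina sequencing, PSI is the read-weighted mean bin number.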

Row | Sequence | protein stability index [1] | protein stability index [2] | protein stability index [3] | protein stability index [4]
1 | GAQMEKEWARALETRDWGGAQFEG [ZSWIM9] | 4.11 ± 0.26 | 4.22 ± 0.1 |  | 
2 | QQQRQRPPRPPPRGTPPRRHSFRK [N4BP2L1] | 4.44 ± 0.16 | 4.75 ± 0.26 |  | 
3 | YMNFRVKACNKAVAGEFSEPVTLE [FSD1] | 3.03 ± 0.29 | 2.93 ± 0.46 |  | 
4 | RDSFMRHRGHCERRHRLGGVGAVP [ZBTB22] | 3.22 ± 0.35 | 3.25 ± 0.4 |  | 
5 | RKRRRNGSKEGNHHSTQPKRNKRN [FAM104B] | 5.22 ± 0.38 | 4.92 ± 0.48 |  | 
6 | TETHVRDWVMWAVNEFSLKGVDFQ [ETS1] | 2.81 ± 0.94 | 2.72 ± 0.78 |  | 
7 | TMLATRNFSAAKSLLNKKADGVKP [CAMK2B] | 3.73 ± 0.34 | 4.02 ± 0.32 |  | 
8 | LDPAYTTLEFENVQVLTMGNDTSP [HNF4A] | 5.58 ± 0.15 | 5.46 ± 0.18 |  | 
9 | GKSFNRHCNLIRHQKIHTVAELV [ZSCAN9] |  |  | 2.08 ± 0.28 | 2.05 ± 0.33
10 | LSDFGLCTGLKKAHRTEFYRNLTH [STK38L] | 2.41 ± 0.6 | 2.2 ± 0.27 |  | 
11 | NNEIPDCYTFSVLITFDNKAHSGR [MCOLN1] | 2.34 ± 0.31 | 2.42 ± 0.53 |  | 
12 | PDDLLTTLDDTCDLFAPLVQETNK [ATF4] | 5.12 ± 0.23 | 5.14 ± 0.22 |  | 
13 | QRTIMKPLEYQFKSQIMSLSHSPQ [TLE6] | 2.89 ± 0.26 | 3.2 ± 0.23 |  | 
14 | EKGTWTELEGDVAEPLAGPACVTV [KLHL14] | 4.66 ± 0.19 | 4.6 ± 0.19 |  | 
15 | VTASPPTDLIWKNQNSWGTGEDVK [LMNB1] | 4.36 ± 0.26 | 4.37 ± 0.24 |  | 
16 | HILASAPTDRNLCHFQALGCRTTH [PYCR3] | 2.19 ± 0.45 | 2.23 ± 0.15 |  | 
17 | PSSQKALLLELKGLQEEPVEGFRV [CDC34] | 3.68 ± 0.14 | 3.47 ± 0.14 |  | 
18 | KRFASLSRFVETLVVADDKMAAFH [ADAMTS4] | 2.25 ± 0.52 | 2.06 ± 0.58 |  | 
19 | STDNIVSQWDVLSGDCDQRFRFPS [RBBP5] | 3.64 ± 0.1 | 3.67 ± 0.16 |  | 
20 | TSSLAQPGAYYPYERTLGQYQYER [IRX6] | 3.25 ± 0.38 | 3.22 ± 0.21 |  | 
21 | EEEVFPLAMNYLDRFLAGVPTPKS [CCND2] | 3.35 ± 0.43 | 3.55 ± 0.25 |  | 
22 | RELNLPFGGMKSSGIGREGAKDSY [ALDH8A1] | 4.08 ± 0.12 | 4.16 ± 0.37 |  | 
23 | CLLQPPSCPNGMSAENGLEKSGFS [DLC1] | 3.99 ± 0.14 | 3.44 ± 0.8 |  | 

Row | Sequence | protein stability index [1] | protein stability index [2] | protein stability index [3] | protein stability index [4]
24 | ILWDTLLRLCAWGLASWPLARGIH [POMT2] | 2.823 ± 0.003 | 3.27 ± 1.2 |  | 
25 | LTHIEAQNKIRACGERLSLGLSRA [PDLIM7] | 2.83 ± 0.27 | 2.85 ± 0.12 |  | 
26 | DSFDKFEFCEPAFVVGNCLQIASD [PCMTD1] | 3.31 ± 0.072 | 3.24 ± 0.22 |  | 
27 | YPTTLGKDRECQSQSLALKEQNNL [ZNF8] | 4.39 ± 0.16 | 4.52 ± 0.19 |  | 
28 | GQSDFRPKNGRHAWIWHDCHRHYH [LOXL2] | 2.54 ± 0.29 | 3.03 ± 0.45 |  | 
29 | SRSESPPPLSDPKQAKVVARRESG [BRD3] | 5.5 ± 0.21 | 5.24 ± 0.17 |  | 
30 | EPGPAAYGLKPLTPNSKYVKLNVG [KCTD13] | 3.66 ± 0.11 | 3.62 ± 0.31 |  | 
31 | ITTPIIDTFKVPKEMFTVGCCVFA [SLC6A17] | 2.67 ± 0.59 | 2.86 ± 0.55 |  | 
32 | CFRMQINHAIDIICGFLKERCFRG [OAS1] | 2.44 ± 0.66 | 2.61 ± 0.36 |  | 
33 | LEERLQLQFEAEMARLQEEHGDQL [MTUS2] | 5.4 ± 0.32 | 5.13 ± 0.17 |  | 
34 | NHEALRQAKQEMNESRRQIQSLTC [PRPH] | 4.47 ± 0.18 | 4.38 ± 0.15 |  | 
35 | NEEETPSCMASLWTAPLVMRTTNL [CDC25A] | 3.22 ± 0.18 | 3.3 ± 0.11 |  | 
36 | QGKDWGFKKFIRRDFLLDEANGLL [SPOPL] | 2.72 ± 0.27 | 2.31 ± 0.23 |  | 
37 | KLPNDSRVERRFHFSQSLTVIHDF [FAF2] | 2.17 ± 0.19 | 2.26 ± 0.44 |  | 
38 | PHLRSFCETCVGSWSIQMRQHHHQ | 2.4 ± 0.25 | 2.34 ± 0.23 |  | 
39 | SSDSANTTIEDEDAKARKQEIIKT [CAMK2B] | 5.44 ± 0.21 | 5.42 ± 0.082 |  | 
40 | SVVRDLKGYPDGVKSIVVKGYNIW [TLE6] | 2.26 ± 0.26 | 2.23 ± 0.21 |  | 
41 | NAKKLSMYGVDLHHAKDSEGVEIM [EPB41L3] | 3.66 ± 0.8 | 3.61 ± 0.72 |  | 
42 | NHEIMPGGSVNITCVAVGSPMPYV [PTPRD] | 2.15 ± 0.8 | 2.28 ± 0.16 |  | 
43 | HFMVLSKSGPGDGFFSSAFQARLS [POMT2] | 2.19 ± 0.11 | 2.06 ± 0.18 |  | 
44 | QHECVNTDDSYSCHCLKGFTLNPD [MATN2] | 4.04 ± 0.16 | 4.15 ± 0.25 |  | 
45 | SLRIALSEHLKQRREVAKTVFCLV [EDNRA] | 1.93 ± 0.34 | 2.26 ± 0.3 |  | 
46 | DVEGAESQLDEDEHGLHTKYIHRM [TRAF3IP2] | 5.09 ± 0.23 | 5.13 ± 0.11 |  | 

Row | Sequence | protein stability index [1] | protein stability index [2] | protein stability index [3] | protein stability index [4]
47 | LLLDCGAEVNAVDNEGNSALHIIV [FEM1B] | 2.39 ± 0.45 | 2.24 ± 0.42 |  | 
48 | FSPNSPQFNVSGPGLLEEDNQWMT [NECAB1] | 3.23 ± 0.34 | 3.58 ± 0.3 |  | 
49 | NVLGAQLDVEAAHSEILKYFQSVT [STX5] | 2.76 ± 0.25 | 2.88 ± 0.33 |  | 
50 | QWSSDVAPTSTCRTSVGVAVLGGF [KLHL20] | 2.69 ± 0.58 | 2.71 ± 0.86 |  | 
51 | DGVPHLILIASRDIAAGEELLYDY [KMT5A] | 1.98 ± 0.31 | 2.13 ± 0.099 |  | 
52 | RGKIHAFRGQILGFWEEERPFWEE [CCDC70] | 2.42 ± 0.14 | 2.47 ± 0.24 |  | 
53 | PIDVVEKYDPKTQEWSFLPSITRK [KLHL12] | 4.56 ± 0.27 | 4.64 ± 0.33 |  | 
54 | QSYPLCIYLINQKWFGRKRTLSAF [SLC22A15] | 2.46 ± 0.47 | 2.2 ± 0.61 |  | 
55 | ALRLAELARRRRRRQARREAEADK [NOP53] | 4.12 ± 0.21 | 4.37 ± 0.82 |  | 
56 | AVVHEYALAVCLSFFYPVLFVLFM [SOAT1] | 3.29 ± 0.42 | 3.02 ± 0.21 |  | 
57 | VSSLISEKTNGATPLLMAARYGHL [FEM1C] | 2.28 ± 0.17 | 2.52 ± 0.28 |  | 
58 | PAPSRMQMPQGNPLLLSHTLQELL [SNX8] | 3.08 ± 0.21 | 3.1 ± 0.22 |  | 
59 | QPVSLRRRKREVLVEDMVSQEEAQ [ZNF24] | 5.07 ± 0.25 | 5.34 ± 0.33 |  | 
60 | ERRRELVRSQTLPRTSEAQARKAL [SMTNL2] | 5.27 ± 0.39 | 5.27 ± 0.29 |  | 
61 | AMEPDRKAAVSHWQQQSYLDSGIH [CTNNB1] | 3.91 ± 0.31 | 3.95 ± 0.32 |  | 
62 | VLSLLSLEPAQRPPLSHIMAQPLC [NEK8] | 2.17 ± 0.15 | 2.3 ± 0.099 |  | 
63 | NTELEVKIRDWYQRQAPGPARDYS [KRT17] | 3.4 ± 0.35 | 3.48 ± 0.41 |  | 
64 | ADQRSRMLSIFYFAIPVGSGLGYI [SPNS1] | 2.44 ± 0.52 | 2.26 ± 0.31 |  | 
65 | GELRRRPGDMKTKMELLILETQAQ [CPOX] | 3.34 ± 0.18 | 3.43 ± 0.26 |  | 
66 | FLPHHIMVKIFRLLPTKSLVALKC [FBXO34] | 2.76 ± 0.39 | 2.29 ± 0.74 |  | 
67 | RFLGEGHHRVQENQMDKARRHPQG [CHGB] | 4.5 ± 0.44 | 4.62 ± 0.38 |  | 
68 | QYVITHAKVNILLVENDQQLQKIL [ACSBG2] | 2.5 ± 0.58 | 2.13 ± 0.2 |  | 
69 | FPHPLWLRDTYKLWVPQPPPRTIK [PWWP2B] | 2.33 ± 0.17 | 2.71 ± 0.33 |  | 

Row | Sequence | protein stability index [1] | protein stability index [2] | protein stability index [3] | protein stability index [4]
70 | VHQLSKKEASRHAIMRSPQMVSAI [CTNNB1] | 3.06 ± 0.26 | 3.06 ± 0.22 |  | 
71 | QMREAFATAFSKLKPESSQQPGQD [ZBED1] | 4.57 ± 0.19 | 4.62 ± 0.094 |  | 
72 | SRSRSRSRSRSRSRSNSRSRSYSP [SRSF1] | 5.52 ± 0.33 | 5.56 ± 0.28 |  | 
73 | ADKYALERLKVMCEEALCSNLSVE [SPOPL] | 3.56 ± 0.18 | 3.62 ± 0.18 |  | 
74 | EKRNAGNAVRSAMKSEEQKIKDAR [KMT5A] | 4.72 ± 0.15 | 5.09 ± 0.21 |  | 
75 | HGQAGQRQDPRPHGPQLPTGIEGN [ZBED2] | 4.91 ± 0.13 | 5.11 ± 0.15 |  | 
76 | QLQFLIRYHRFISFALYLAGFCMF [CDS1] | 2.07 ± 0.062 | 2.32 ± 0.52 |  | 
77 | LASRIRSNKKMLLLVGGLPPGPDR [KLHL14] | 2.32 ± 0.17 | 2.34 ± 0.42 |  | 
78 | MFLEISSYYDPGRLICDFPFDGLL [VPS39] |  | 3.39 ± 1.3 |  | 
79 | LKNNETLVQHGVKPQEIVQVEIFS [IQUB] | 2.82 ± 0.54 | 2.98 ± 0.7 |  | 
80 | SIEGTIPFSKPVKVYIMPKPARR [INTS4] |  |  | 2.42 ± 0.33 | 2.56 ± 0.45
81 | MVEADRPGKLFIGGLNTETNEKAL [RBMX] | 4.75 ± 0.096 | 4.39 ± 0.48 |  | 
82 | LYLKQSDLASAAAKQIMEETYKME [INTS4] | 3.05 ± 0.17 | 3.3 ± 0.23 |  | 
83 | MGQCRSANAEDAQEFSDVERAIET [S100A14] | 4.99 ± 0.32 | 5.15 ± 0.2 |  | 
84 | LFLPCLLCYPPAKGCLKLCRRCYD [SPRY1] | 2.36 ± 0.19 | 2.45 ± 0.62 |  | 
85 | MVLLIMKLDQLDQDIENALSTSSS [DLC1] | 2.69 ± 0.58 | 2.49 ± 0.45 |  | 
86 | SNKSLVEALGLEAEGAVPETQTLT [RHOBTB1] | 5.09 ± 0.26 | 5.16 ± 0.36 |  | 
87 | LPSWAELLRPKYRAPQGCSGVDEC [PBXIP1] | 2.83 ± 0.11 | 2.69 ± 0.46 |  | 
88 | NGNRRRRKLRKTVNGDGSRENGNN [PHTF1] | 4.93 ± 0.43 | 5.12 ± 0.19 |  | 
89 | DLETHRLPCTSRCPRPCRESAFKL [SCNN1D] | 2.41 ± 0.21 | 2.44 ± 0.063 |  | 
